Source: publication PMC9482650, “Quantitative fragmentomics allow affinity mapping of interactomes” (Nature Communications, 2022)

How the values were obtained:
Assay in all cases: holdup assay
Design in all cases: key: below the threshold = too weak to quantify, mostly under pKd 3.1 to 4
Conditions in all cases: plain residues with an end cap or a label only (N-terminal biotin on a linker: ado-ado)
GRID2IP_1, A4D2P6 = biological target: GRID2IP_1, A4D2P6
SCRIB_1, Q14160 = biological target: SCRIB_1, Q14160
SCRIB_1, Q14160, sequence (Q14160 718-814): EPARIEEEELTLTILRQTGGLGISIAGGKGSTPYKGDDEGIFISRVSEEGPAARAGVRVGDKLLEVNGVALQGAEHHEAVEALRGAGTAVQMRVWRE

SNX27, Q96L92 = biological target: SNX27, Q96L92
NHERF4_4, Q86UT5 = biological target: NHERF4_4, Q86UT5
NHERF4_4, Q86UT5, sequence (Q86UT5 464-550): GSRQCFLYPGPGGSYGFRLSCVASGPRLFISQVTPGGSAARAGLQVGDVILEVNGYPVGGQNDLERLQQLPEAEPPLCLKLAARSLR

NHERF4_2, Q86UT5 = biological target: NHERF4_2, Q86UT5
NHERF4_2, Q86UT5, sequence (Q86UT5 220-308): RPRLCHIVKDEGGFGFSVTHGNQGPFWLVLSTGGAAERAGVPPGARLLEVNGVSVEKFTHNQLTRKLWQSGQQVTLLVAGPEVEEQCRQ

DFNB31_1, Q9P202 = biological target: T1, DFNB31_1, Q9P202
T1 sequence (Q9P202 135-233, limits assumed, looked up): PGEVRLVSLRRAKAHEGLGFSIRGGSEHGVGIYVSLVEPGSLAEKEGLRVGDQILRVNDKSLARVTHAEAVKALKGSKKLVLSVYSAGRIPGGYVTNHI

LIN7B, Q9HAP6 = biological target: T2, LIN7B, Q9HAP6
T2 sequence (Q9HAP6 88-185, limits assumed, looked up): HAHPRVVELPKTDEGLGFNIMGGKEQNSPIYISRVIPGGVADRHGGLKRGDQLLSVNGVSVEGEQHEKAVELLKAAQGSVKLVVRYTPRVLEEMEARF

RAPGEF6, Q8TEU7 = biological target: T3, RAPGEF6, Q8TEU7
T3 sequence (Q8TEU7 525-625, limits assumed, looked up): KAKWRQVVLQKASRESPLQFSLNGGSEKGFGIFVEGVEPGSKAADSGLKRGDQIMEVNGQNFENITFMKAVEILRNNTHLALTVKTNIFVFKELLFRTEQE

MPDZ_5, O75970 = biological target: T4, MPDZ_5, O75970
T4 sequence (O75970 695-796, limits assumed, looked up): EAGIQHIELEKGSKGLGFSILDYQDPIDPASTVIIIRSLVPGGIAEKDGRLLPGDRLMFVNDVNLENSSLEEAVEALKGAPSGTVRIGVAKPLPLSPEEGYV

DLG1_3, Q12959 = biological target: DLG1_3, Q12959
DLG1_3, Q12959, sequence (Q12959 457-571): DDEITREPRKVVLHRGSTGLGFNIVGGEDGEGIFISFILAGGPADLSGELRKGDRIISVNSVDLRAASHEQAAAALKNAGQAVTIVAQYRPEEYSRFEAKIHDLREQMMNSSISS

FRMPD2_3, Q68DX3 = biological target: FRMPD2_3, Q68DX3
FRMPD2_3, Q68DX3, sequence (Q68DX3 1073-1166): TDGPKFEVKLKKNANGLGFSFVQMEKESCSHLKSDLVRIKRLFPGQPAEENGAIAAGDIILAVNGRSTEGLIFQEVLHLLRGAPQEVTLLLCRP

MPDZ_10, O75970 = biological target: T5, MPDZ_10, O75970
T5 sequence (O75970 1624-1722, limits assumed, looked up): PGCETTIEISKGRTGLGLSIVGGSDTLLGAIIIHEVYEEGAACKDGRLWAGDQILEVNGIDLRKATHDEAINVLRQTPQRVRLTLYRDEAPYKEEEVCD

Inadl_5, Q8NI35 = biological target: Inadl_5, Q8NI35
Inadl_5, Q8NI35, sequence (Q8NI35 673-780): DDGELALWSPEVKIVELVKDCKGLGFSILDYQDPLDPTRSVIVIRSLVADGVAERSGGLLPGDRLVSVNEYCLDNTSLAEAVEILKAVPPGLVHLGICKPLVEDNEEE

AHNAK1, Q09666 = biological target: AHNAK1, Q09666
AHNAK1, Q09666, sequence (Q09666 4-100): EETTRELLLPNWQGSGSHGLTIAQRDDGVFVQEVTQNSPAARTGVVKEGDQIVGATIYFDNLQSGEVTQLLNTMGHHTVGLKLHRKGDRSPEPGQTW

SIPA1L2, Q9P2F8 = biological target: T6, SIPA1L2, Q9P2F8
T6 sequence (Q9P2F8 945-1036, limits assumed, looked up): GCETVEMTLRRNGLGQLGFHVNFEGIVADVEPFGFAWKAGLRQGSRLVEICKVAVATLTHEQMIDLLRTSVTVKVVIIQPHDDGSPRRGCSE

NHERF3_3, Q5T2W1 = biological target: T7, NHERF3_3, Q5T2W1
T7 sequence (Q5T2W1 238-333, limits assumed, looked up): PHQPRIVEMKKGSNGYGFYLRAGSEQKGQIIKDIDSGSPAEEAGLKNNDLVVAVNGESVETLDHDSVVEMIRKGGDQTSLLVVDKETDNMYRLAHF

TJP1_3, Q07157 = biological target: TJP1_3, Q07157
TJP1_3, Q07157, sequence (Q07157 416-512): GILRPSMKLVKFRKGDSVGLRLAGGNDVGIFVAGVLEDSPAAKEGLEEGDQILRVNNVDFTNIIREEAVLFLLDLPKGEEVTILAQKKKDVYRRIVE

SNTG2, Q9NY99 = biological target: T8, SNTG2, Q9NY99
T8 sequence (Q9NY99 68-166, limits assumed, looked up): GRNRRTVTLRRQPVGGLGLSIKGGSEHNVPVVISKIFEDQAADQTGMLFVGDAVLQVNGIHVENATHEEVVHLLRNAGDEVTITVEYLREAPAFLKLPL

MPDZ_12, O75970 = biological target: T9, MPDZ_12, O75970
T9 sequence (O75970 1857-1958, limits assumed, looked up): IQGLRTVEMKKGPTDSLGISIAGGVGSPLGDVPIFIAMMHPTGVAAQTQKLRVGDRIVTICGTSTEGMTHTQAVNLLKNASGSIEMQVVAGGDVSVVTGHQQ

DLG3_1, Q92796 = biological target: T10, DLG3_1, Q92796
T10 sequence (Q92796 125-227, limits assumed, looked up): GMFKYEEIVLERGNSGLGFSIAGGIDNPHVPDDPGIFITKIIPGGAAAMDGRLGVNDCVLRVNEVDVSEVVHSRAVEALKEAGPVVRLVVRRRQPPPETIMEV

Inadl_3, Q8NI35 = biological target: Inadl_3, Q8NI35
Inadl_3, Q8NI35, sequence (Q8NI35 359-469): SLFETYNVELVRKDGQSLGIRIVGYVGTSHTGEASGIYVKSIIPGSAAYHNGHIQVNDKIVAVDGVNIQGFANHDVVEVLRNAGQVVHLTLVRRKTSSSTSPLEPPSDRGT

LDB3, O75112 = biological target: LDB3, O75112
LDB3, O75112, sequence (O75112 1-94): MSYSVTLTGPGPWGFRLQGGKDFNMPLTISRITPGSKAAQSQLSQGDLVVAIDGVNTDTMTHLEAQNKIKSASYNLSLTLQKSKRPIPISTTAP

PDZRN3_1, Q9UPQ7 = biological target: T11, PDZRN3_1, Q9UPQ7
T11 sequence (Q9UPQ7 244-349, limits assumed, looked up): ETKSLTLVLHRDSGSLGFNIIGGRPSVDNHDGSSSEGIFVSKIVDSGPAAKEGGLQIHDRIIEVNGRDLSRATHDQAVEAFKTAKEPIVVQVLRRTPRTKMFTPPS

DLG3_2, Q92796 = biological target: T12, DLG3_2, Q92796
T12 sequence (Q92796 221-321, limits assumed, looked up): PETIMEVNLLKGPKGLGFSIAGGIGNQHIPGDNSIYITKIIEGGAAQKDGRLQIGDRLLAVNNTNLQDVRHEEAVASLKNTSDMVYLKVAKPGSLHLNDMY

GRID2IP_1, A4D2P6, sequence (A4D2P6 1-87): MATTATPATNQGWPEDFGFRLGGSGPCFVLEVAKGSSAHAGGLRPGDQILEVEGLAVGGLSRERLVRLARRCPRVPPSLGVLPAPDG

**Q.** What does the source list for RDPPAEWTRV [PTPN18, Q99952]?
**A.** pKd (GRID2IP_1, A4D2P6): below the threshold; pKd (SCRIB_1, Q14160): 4.1; pKd (SNX27, Q96L92): 4.55; pKd (NHERF4_4, Q86UT5): below the threshold; pKd (NHERF4_2, Q86UT5): below the threshold; pKd (DFNB31_1, Q9P202): 4.17; pKd (LIN7B, Q9HAP6): below the threshold; pKd (RAPGEF6, Q8TEU7): below the threshold; pKd (MPDZ_5, O75970): below the threshold; pKd (DLG1_3, Q12959): below the threshold; pKd (FRMPD2_3, Q68DX3): below the threshold; pKd (MPDZ_10, O75970): below the threshold; pKd (Inadl_5, Q8NI35): below the threshold; pKd (AHNAK1, Q09666): below the threshold; pKd (SIPA1L2, Q9P2F8): below the threshold; pKd (NHERF3_3, Q5T2W1): 3.87; pKd (TJP1_3, Q07157): below the threshold; pKd (SNTG2, Q9NY99): 4.19; pKd (MPDZ_12, O75970): 3.66; pKd (DLG3_1, Q92796): 3.61; pKd (Inadl_3, Q8NI35): below the threshold; pKd (LDB3, O75112): below the threshold; pKd (PDZRN3_1, Q9UPQ7): 3.55; pKd (DLG3_2, Q92796): 4.2

**Q.** What does the source list for VLYPREGTEV [FOXI1, Q12951]?
**A.** pKd (GRID2IP_1, A4D2P6): below the threshold; pKd (SCRIB_1, Q14160): 3.99; pKd (SNX27, Q96L92): 4.31; pKd (NHERF4_4, Q86UT5): below the threshold; pKd (NHERF4_2, Q86UT5): below the threshold; pKd (DFNB31_1, Q9P202): 3.8; pKd (LIN7B, Q9HAP6): below the threshold; pKd (RAPGEF6, Q8TEU7): below the threshold; pKd (MPDZ_5, O75970): 3.66; pKd (DLG1_3, Q12959): 3.75; pKd (FRMPD2_3, Q68DX3): below the threshold; pKd (MPDZ_10, O75970): 3.49; pKd (Inadl_5, Q8NI35): 3.83; pKd (AHNAK1, Q09666): below the threshold; pKd (SIPA1L2, Q9P2F8): below the threshold; pKd (NHERF3_3, Q5T2W1): below the threshold; pKd (TJP1_3, Q07157): below the threshold; pKd (SNTG2, Q9NY99): 3.6; pKd (MPDZ_12, O75970): below the threshold; pKd (DLG3_1, Q92796): 4.03; pKd (Inadl_3, Q8NI35): 3.72; pKd (LDB3, O75112): below the threshold; pKd (PDZRN3_1, Q9UPQ7): 4.46; pKd (DLG3_2, Q92796): 4.59

**Q.** Which pKd (GRID2IP_1, A4D2P6) does the source give for MHIQEKGFHV [EPHA6, Q9UF33] here?
**A.** The pKd was “below the threshold”.

**Q.** And the pKd (SCRIB_1, Q14160)?
**A.** The pKd was “below the threshold”.

**Q.** And the pKd (SNX27, Q96L92)?
**A.** Its pKd is “below the threshold”.

**Q.** And the pKd (NHERF4_4, Q86UT5)?
**A.** Its pKd is “below the threshold”.

**Q.** What about the pKd (NHERF4_2, Q86UT5) of the same binder?
**A.** Its pKd is “below the threshold”.

**Q.** And the pKd (DFNB31_1, Q9P202)?
**A.** Its pKd is “below the threshold”.

**Q.** What about the pKd (LIN7B, Q9HAP6) of the same binder?
**A.** Its pKd is “below the threshold”.

**Q.** What about the pKd (RAPGEF6, Q8TEU7) of the same binder?
**A.** Its pKd is “below the threshold”.

**Q.** What about the pKd (MPDZ_5, O75970) of the same binder?
**A.** Its pKd is “below the threshold”.

**Q.** What about the pKd (DLG1_3, Q12959) of the same binder?
**A.** Its pKd is “below the threshold”.

**Q.** What about the pKd (FRMPD2_3, Q68DX3) of the same binder?
**A.** The pKd was “below the threshold”.

**Q.** And the pKd (MPDZ_10, O75970)?
**A.** Its pKd is “below the threshold”.

**Q.** And the pKd (Inadl_5, Q8NI35)?
**A.** The pKd was “below the threshold”.

**Q.** What about the pKd (AHNAK1, Q09666) of the same binder?
**A.** Its pKd is “below the threshold”.

**Q.** What about the pKd (SIPA1L2, Q9P2F8) of the same binder?
**A.** Its pKd is “below the threshold”.

**Q.** And the pKd (NHERF3_3, Q5T2W1)?
**A.** Its pKd is “below the threshold”.

**Q.** And the pKd (TJP1_3, Q07157)?
**A.** The pKd was “below the threshold”.

**Q.** And the pKd (SNTG2, Q9NY99)?
**A.** The pKd was “below the threshold”.

**Q.** And the pKd (MPDZ_12, O75970)?
**A.** Its pKd is “below the threshold”.

**Q.** What about the pKd (DLG3_1, Q92796) of the same binder?
**A.** The pKd was “below the threshold”.

**Q.** And the pKd (Inadl_3, Q8NI35)?
**A.** Its pKd is “below the threshold”.

**Q.** And the pKd (LDB3, O75112)?
**A.** Its pKd is “below the threshold”.

**Q.** And the pKd (PDZRN3_1, Q9UPQ7)?
**A.** The pKd was “below the threshold”.

**Q.** What about the pKd (DLG3_2, Q92796) of the same binder?
**A.** Its pKd is “below the threshold”.
